Test results from paper PMC3891831.

T1: GST-MEIOB construct A (Mus musculus, UniProt Q9D513 136-307)
T1 sequence: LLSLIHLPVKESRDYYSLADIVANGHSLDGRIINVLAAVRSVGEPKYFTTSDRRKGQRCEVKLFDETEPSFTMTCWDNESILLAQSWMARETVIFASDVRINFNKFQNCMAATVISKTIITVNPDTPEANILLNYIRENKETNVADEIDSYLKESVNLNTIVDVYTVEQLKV

B1: 5' flap (30 nt) (dsDNA)
DNA 1: GTGTGTGTGTGTGTGTGTGTGTGTGTGTGTGGACATCTTTGCCCACCTGCAGGTTCACCC
DNA 2: GGGTGAACCTGCAGGTGGGCAAAGATGTCC
B2: dsDNA 36 bp (dsDNA)
DNA 1: GTGTGTGTGTGTGTGTGTGTGTGTGTGTGTGTGTGT
DNA 2: ACACACACACACACACACACACACACACACACACAC
B3: 3' flap (30 nt) (dsDNA)
DNA 1: CGATAGTCGGATCCTCTAGACAGCTCCATGGTGTGTGTGTGTGTGTGTGTGTGTGTGTGT
DNA 2: CATGGAGCTGTCTAGAGGATCCGACTATCG

Assays:
[1] = molecular target: T1, GST-MEIOB construct A; test: EMSA
[2] = molecular target: T1, GST-MEIOB construct A; test: EMSA; remark: listed apart in the source

| Binder | binding result [1] | Kd [2] |
| --- | --- | --- |
| B1 | binds | – |
| GTGTGTGTGTGTGTGTGTGTGTGTGTGTGTGTGTGT (ssDNA) [d36GT] | – | 400 nM |
| B2 | no binding | – |
| B3 | binds | – |
